Publication PMC5702532 (2016)

Molecular target: Bradykinin (Homo sapiens, UniProt P01042)
Test: SPR

Chain of Bradykinin (P01042 whole entry, looked up): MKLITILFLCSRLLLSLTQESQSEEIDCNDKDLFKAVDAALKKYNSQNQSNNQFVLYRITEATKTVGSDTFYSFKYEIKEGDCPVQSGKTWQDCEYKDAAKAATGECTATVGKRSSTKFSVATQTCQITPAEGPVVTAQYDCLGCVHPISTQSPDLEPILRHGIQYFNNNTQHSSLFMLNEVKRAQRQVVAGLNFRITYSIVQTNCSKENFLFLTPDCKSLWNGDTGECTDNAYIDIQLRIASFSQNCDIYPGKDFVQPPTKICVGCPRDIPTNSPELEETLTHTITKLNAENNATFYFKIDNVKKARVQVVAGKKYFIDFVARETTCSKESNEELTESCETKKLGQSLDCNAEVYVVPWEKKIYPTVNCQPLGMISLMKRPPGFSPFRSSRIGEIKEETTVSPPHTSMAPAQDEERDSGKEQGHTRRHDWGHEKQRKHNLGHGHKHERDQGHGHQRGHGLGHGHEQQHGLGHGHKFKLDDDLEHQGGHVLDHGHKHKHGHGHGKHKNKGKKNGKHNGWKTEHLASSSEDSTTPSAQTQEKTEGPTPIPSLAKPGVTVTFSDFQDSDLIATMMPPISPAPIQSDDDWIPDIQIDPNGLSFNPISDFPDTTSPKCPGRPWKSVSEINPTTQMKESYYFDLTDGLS

Kd: 15.3 µM
B1: Aminopeptidase P (APaseP) (protein)
chain: PPKVTSELLRQLRQAMRNSEYVTEPIQAYIIPSGDAHQSEYIAPCDCRRAFVSGFDGSAGTAIITEEHAAMWTDGRYFLQAAKQMDSNWTLMKMGLKDTPTQEDWLVSVLPEGSRVGVDPLIIPTDYWKKMAKVLRSAGHHLIPVKENLVDKIWTDRPERPCKPLLTLGLDYTGISWKDKVADLRLKMAERNVMWFVVTALDEIAWLFNLRGSDVEHNPVFFSYAIIGLETIMLFIDGDRIDAPSVKEHLLLDLGLEAEYRIQVHPYKSILSELKALCADLSPREKVWVSDKASYAVSETIPKDHRCCMPYTPICIAKAVKNSAESEGMRRAHIKDAVALCELFNWLEKEVPKGGVTEISAADKAEEFRRQQADFVDLSFPTISSTGPNGAIIHYAPVPETNRTLSLDEVYLIDSGAQYKDGTTDVTRTMHFGTPTAYEKECFTYVLKGHIAVSAAVFPTGTKGHLLDSFARSALWDSGLDYLHGTGHGVGSFLNVHEGPCGISYKTFSDEPLEAGMIVTDEPGYYEDGAFGIRIENVVLVVPVKTKYNFNNRGSLTFEPLTLVPIQTKMIDVDSLTDKECDWLNNYHLTCRDVIGKELQKQGRQEALEWLIRETQPISKQH
